According to patent US20190071714, “[…] FOR CLOSTRIDIUM […] DETECTION” (McMaster University, published 2019):
Like-named read-outs stand apart in the source and are kept apart here.

Tests used:
[1] = target: T1, rGDH (recombinant glutamate dehydrogenase) (Clostridium difficile, UniProt P27346 SEQ:1-421); test: pulldown; […]; 1x PBS, 150 mM NaCl, 0.02% Tween-20, pH 7.6, room temperature; details: tags: C-terminal His6; expressed in E. coli; Pro-Lab Diagnostics
T1 sequence: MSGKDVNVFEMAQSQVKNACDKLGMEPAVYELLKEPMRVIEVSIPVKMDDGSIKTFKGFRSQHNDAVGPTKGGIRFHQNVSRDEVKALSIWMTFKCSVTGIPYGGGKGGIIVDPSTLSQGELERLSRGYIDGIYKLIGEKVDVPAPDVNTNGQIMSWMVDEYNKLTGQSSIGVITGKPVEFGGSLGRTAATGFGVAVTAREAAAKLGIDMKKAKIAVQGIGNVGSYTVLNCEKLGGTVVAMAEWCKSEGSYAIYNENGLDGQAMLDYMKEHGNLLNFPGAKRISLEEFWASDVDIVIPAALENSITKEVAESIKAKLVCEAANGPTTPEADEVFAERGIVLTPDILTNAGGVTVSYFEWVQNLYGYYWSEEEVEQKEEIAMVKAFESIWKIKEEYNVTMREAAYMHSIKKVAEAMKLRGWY

BSA [2] = target: T2, BSA (UniProt P02769 P02769:25-607); test: EMSA; 10 nM protein; details: tags: Sigma
Description: The truncated aptamer, anti-GDH-T1, was then radioactively labeled at the 5′ end and tested for binding to the rGDH target by EMSA assays.^{39,40} A typical image of an EMSA result is shown in FIG. 3A. It was observed that the electrophoretic mobility of the protein-aptamer complex was typically less than that of the free aptamer. The fractional saturation of bound aptamer was calculated as a function of rGDH concentration (FIG. 3B). […] The specificity was also tested by EMSA. No obvious band was observed when using proteins such as BSA, thrombin and IgG (FIG. 8).
Binding reactions were performed in 20 μL of 1× binding buffer containing 3 nM 32P-labeled anti-GDH1-T1 aptamer and various concentrations of rGDH (0 to 1000 nM). After incubation for 30 min, the reaction mixtures were spiked with 6× loading buffer, and then loaded into the wells of a nondenaturing polyacrylamide gel (8%) at 4° C. Visualization of DNA bands was done using a Typhoon 9200 imager and the resulting bands were quantified with ImageQuant software.

[3] = target: T1, rGDH (recombinant glutamate …); test: EMSA; […]; 1x PBS, 150 mM NaCl, 0.02% Tween-20, pH 7.6; […]; details: tags: C-terminal His6; expressed in E. coli; Pro-Lab Diagnostics
thrombin [4] = target: T3, thrombin (Homo sapiens, UniProt P00734;P00734 P00734:328-363,P00734:364-622); test: EMSA
[5] = target: T1, rGDH (recombinant glutamate …); test: pulldown; 20 nM DNA, rGDH beads; details: tags: C-terminal His6; expressed in E. coli; Pro-Lab Diagnostics
[6] = target: T1, rGDH (recombinant glutamate …); test: pulldown; […]; PBS pH 7.6, room temperature; details: tags: C-terminal His6; expressed in E. coli; Pro-Lab Diagnostics
TcdA (toxin A) = TcdA (toxin A) (Clostridium difficile, UniProt P16154 SEQ:1-2710)
TcdB (toxin B) = TcdB (toxin B) (Clostridium difficile, UniProt P18177 SEQ:2-2366)
thrombin [7] = target: T3, thrombin
BSA [8] = target: T2, BSA; test: RGO fluorescence sensor, 300 nM protein, no significant response; details: tags: Sigma
Description: The detection limit (defined as 3σ/slope, with a being the standard deviation of the blank samples) of the sensor was determined to be 1 nM (FIG. 5A). The selectivity of the aptamer-graphene biosensing system was also evaluated by using non-target proteins (BSA, thrombin, IgG, TcdA and TcdB).
In a typical assay, 20 μL of 5× binding buffer (5×PBS, containing 750 mM NaCl and 0.1% Tween-20, pH 7.6), 2 μL of FAM-labeled (5′ end) aptamer probe (7 μM), 30 μL of RGO solution (100 μg/mL) and 48 μL of water were first mixed and incubated in a micro-centrifuge tube for 30 min. Then, 10 μL of 1% BSA was added to block the surface. After incubating for 20 min, 5 μL of nGDH with different dilutions was added to the mixture and time-dependent fluorescence emission measurements were performed at λₑₓ/λₑₘ=494/518 nm. The emission intensity obtained at a reaction time of 60 min was plotted against nGDH concentration to obtain a limit of detection. A similar experiment was carried out using non-target proteins (BSA, human thrombin, human IgG, TcdA and TcdB from C. difficile) to evaluate aptamer selectivity.

[9] = target: T1, rGDH (recombinant glutamate …); test: pulldown; 20 nM DNA, rGDH beads; decreased; details: tags: C-terminal His6; expressed in E. coli; Pro-Lab Diagnostics
[10] = target: T1, rGDH (recombinant glutamate …); test: pulldown; details: tags: C-terminal His6; expressed in E. coli; Pro-Lab Diagnostics

T2 sequence (P02769 25-607, one chain of several): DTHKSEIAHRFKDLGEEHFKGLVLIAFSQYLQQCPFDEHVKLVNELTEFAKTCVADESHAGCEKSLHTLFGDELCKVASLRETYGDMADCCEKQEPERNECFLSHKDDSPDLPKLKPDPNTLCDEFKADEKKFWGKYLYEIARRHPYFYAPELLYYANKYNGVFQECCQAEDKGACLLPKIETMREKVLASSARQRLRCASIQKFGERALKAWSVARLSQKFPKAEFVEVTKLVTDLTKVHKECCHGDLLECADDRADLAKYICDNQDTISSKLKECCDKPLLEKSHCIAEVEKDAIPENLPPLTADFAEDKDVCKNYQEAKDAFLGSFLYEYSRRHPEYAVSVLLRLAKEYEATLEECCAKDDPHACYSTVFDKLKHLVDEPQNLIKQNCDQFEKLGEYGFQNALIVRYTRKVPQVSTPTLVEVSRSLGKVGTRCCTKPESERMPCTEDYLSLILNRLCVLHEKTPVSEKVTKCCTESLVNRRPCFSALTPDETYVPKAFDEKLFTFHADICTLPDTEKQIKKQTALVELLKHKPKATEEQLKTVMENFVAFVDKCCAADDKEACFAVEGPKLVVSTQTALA
TcdB (toxin B), sequence (P18177 2-2366): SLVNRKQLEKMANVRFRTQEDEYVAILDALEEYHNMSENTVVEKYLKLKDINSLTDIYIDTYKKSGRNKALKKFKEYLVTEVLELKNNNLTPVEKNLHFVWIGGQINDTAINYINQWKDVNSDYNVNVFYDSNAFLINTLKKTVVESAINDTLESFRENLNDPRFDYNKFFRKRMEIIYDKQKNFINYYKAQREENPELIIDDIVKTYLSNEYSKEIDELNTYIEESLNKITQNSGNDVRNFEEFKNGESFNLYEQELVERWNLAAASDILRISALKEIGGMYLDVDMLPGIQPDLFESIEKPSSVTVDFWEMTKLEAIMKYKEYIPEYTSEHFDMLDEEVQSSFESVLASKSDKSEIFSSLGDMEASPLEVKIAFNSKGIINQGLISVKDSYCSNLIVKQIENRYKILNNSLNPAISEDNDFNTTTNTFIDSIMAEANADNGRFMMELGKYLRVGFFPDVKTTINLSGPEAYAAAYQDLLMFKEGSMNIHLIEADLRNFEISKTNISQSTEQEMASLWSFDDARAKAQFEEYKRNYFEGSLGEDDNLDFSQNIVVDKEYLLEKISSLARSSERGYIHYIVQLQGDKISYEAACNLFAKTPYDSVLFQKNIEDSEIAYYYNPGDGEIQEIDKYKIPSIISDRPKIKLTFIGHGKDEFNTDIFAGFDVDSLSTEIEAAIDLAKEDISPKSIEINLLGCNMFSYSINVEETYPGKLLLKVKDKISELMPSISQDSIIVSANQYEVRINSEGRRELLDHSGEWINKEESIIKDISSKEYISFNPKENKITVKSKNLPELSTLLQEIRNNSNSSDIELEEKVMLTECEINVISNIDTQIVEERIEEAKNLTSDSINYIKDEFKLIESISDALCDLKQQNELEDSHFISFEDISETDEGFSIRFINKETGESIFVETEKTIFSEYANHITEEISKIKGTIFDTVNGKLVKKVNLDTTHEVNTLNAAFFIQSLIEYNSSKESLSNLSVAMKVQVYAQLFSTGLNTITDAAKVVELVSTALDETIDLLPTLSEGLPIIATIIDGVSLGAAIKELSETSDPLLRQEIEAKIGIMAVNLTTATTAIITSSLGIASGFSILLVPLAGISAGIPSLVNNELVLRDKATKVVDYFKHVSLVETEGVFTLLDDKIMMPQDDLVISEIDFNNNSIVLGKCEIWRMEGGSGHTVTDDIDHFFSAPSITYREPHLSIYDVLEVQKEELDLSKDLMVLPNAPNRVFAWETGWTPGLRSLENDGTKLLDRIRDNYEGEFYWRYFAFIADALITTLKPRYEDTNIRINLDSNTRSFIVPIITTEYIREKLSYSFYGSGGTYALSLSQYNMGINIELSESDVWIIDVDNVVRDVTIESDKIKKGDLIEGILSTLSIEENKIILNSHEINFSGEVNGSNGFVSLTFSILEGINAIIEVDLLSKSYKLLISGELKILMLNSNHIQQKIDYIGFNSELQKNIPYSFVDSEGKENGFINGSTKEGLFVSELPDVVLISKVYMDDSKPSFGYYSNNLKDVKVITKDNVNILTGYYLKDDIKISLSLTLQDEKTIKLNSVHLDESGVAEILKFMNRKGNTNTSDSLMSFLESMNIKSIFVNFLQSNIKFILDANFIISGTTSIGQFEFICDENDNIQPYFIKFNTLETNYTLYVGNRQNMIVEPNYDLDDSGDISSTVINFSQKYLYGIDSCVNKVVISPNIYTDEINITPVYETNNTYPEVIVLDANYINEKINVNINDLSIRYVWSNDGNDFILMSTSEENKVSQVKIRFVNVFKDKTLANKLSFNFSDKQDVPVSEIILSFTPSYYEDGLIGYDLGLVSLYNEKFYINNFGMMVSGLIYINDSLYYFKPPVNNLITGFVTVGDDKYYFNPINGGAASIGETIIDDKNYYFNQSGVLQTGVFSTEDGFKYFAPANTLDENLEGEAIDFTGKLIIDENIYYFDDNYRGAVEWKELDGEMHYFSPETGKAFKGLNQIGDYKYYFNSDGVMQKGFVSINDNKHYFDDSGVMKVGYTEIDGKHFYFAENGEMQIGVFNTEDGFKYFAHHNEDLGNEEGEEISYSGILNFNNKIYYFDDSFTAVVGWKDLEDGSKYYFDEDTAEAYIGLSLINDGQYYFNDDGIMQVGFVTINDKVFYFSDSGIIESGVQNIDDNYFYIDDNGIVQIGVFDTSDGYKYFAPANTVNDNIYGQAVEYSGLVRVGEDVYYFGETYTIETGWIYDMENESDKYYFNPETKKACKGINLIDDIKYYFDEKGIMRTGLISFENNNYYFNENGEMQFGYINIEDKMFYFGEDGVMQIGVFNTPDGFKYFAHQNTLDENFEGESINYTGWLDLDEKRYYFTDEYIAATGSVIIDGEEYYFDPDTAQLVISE

B1: anti-G1 (anti-GDH1) (ssDNA)
DNA: CAGGTCCATCGAGTGGTAGGAGGAGGTATTTAGTGCCAAGCCATCTCAAACGACGTCTGAGTCGCACTGCTCCTGAACGTAC
Kd [1]: 3.1 nM

B2: anti-G1-T1 (ssDNA)
DNA: TAGGAGGAGGTATTTAGTGCCAAGCCATCTCAAACGACGTCTGAGTCGCACTGCTCCTG
binding result (BSA [2]): no binding
Kd [3]: 4.5 nM
binding result (thrombin [4]): no binding

AGCCATCTCAAACGACGTCTGAGTCGCA (ssDNA) [anti-G1-T6]
binding result [5]: no binding

AGGTATTTAGTGCCAAGCCATCGTCGCACTGCTCCTG (ssDNA) [anti-G1-T8]
binding result [5]: no binding

B3: anti-G7 (anti-GDH7) (ssDNA)
DNA: CAGGTCCATCGAGTGGTAGGACCCAACCCACGATGCGCAAGAGGAATGCAGCCTACCAGCATCGCACTGCTCCTGAACGTAC
Kd [6]: 4.6 nM

B4: FAM-anti-GDH1-T1 (ssDNA)
DNA: B2 DNA
binding result (TcdA (toxin A)): no binding
binding result (TcdB (toxin B)): no binding
binding result (thrombin [7]): no binding
binding result (BSA [8]): no binding

B5: anti-G3 (anti-GDH3) (ssDNA)
DNA: CAGGTCCATCGAGTGGTAGGATGCAGCGGACAGTGTGGGACCATCGCTGCGGATGTATGAATCGCACTGCTCCTGAACGTAC
Kd [6]: 5.6 nM

B6: anti-G1-T3 (ssDNA)
DNA: AGGTATTTAGTGCCAAGCCATCTCAAACGACGTCTGAGTCGCACTGCTCCTG
binding result [9]: binds

AGGTATTTAGTGCCAAGCCATCTCAAACGACGTCTGAGTCGCACTGCT (ssDNA) [anti-G1-T4]
binding result [10]: binds

TAGTGCCAAGCCATCTCAAACGACGTCTGAGTCGCACTG (ssDNA) [anti-G1-T7]
binding result [5]: no binding
